This is an account of results in paper PMC7044329.

This test addresses transcriptional activation domain of ATF6α. The test is described as follows: affinity purification with mass spectrometry; Mediator enriched from wild-type and MED26 hypomorphic HEK293T cells by binding to the ATF6α transcriptional activation domain (glutathione affinity); semi-quantitative MudPIT.

Consider “mutant MED26 that lacks the NTD (from UniProt O95402 1-600) (natural protein)”, for which the level in Mediator relative to wild-type MED26 lay in the range of 30 to 50%.
